# Measurements from publication PMC3581551, “The N-Terminal β-Sheet of Peroxiredoxin 4 in the Large Yellow Croaker Pseudosciaena crocea Is Involved in Its Biological Functions” (PLoS ONE, 2013).
# Molecular target: the molecule itself
# Test: crystal structure; reduced form, 1.90 Å, space group C2; five subunits in the asymmetric unit (two dimers and a monomer), decamer (pentamer of dimers) by crystal symmetry; crystals at 16°C, 10% PEG MME 5,000, 0.1 M HEPES-NaOH pH 8.0, with 14 mM β-mercaptoethanol and 10 mM DTT
protein,measurement,value
"Pseudosciaena crocea peroxiredoxin 4 (Prx4), mature protein without the 29-residue signal peptide (enzyme) EEAAHVKNSQCHNYAGGHVYPGEAFRVPVSDHSLHLSKAKISKPAPQWEGTAVINGEFKELKLSDYRGKYLVFFFYPLDFTFVCPTEIIAFSDRVHEFRAINTEVVACSVDSQFTHLAWIITPRKQGGLGPMKIPLLSDLTHQISKDYGVYLEDQGHTLRGLFIIDEKGVLRQITMNDLPVGRSVDETLRLVQAFQYTDKHGEVCPAGWKPGSDTIIPDPSGKLKYFDKMK",stoichiometry N,10
